# According to the RNAGym collection of RNA variant scans (doi:10.7554/elife.80360):
# B1: Hairpin Ribozyme (parent)
# chain: GUCCUCUUUCACGUGCGCGUGAAAGAGAGAAGUGAACCAGAGAAACACACGUUGUGGUAUAUUACCUGGUA
# Variants of: B1
# Assay: self-cleavage, relative activity (ratio to wild type); higher = more cleavage; co-transcriptional
row,Variant,self-cleavage
1,GUCCUCUUUCACGUGCGCGUGAAAGACAGAAGUGAACCAGAGAAACAGACGUUGUGGUAUAUUACCUGGUA [G27C C48G],0.164
2,GUCCUCUUUCACGUGCGCGUGAAAGACAGAAGUGAACCAGAGAAACACACGUUGUGGUAUAUUACCUGGGA [G27C U70G],0.122
3,GUCCUCUUUCACGUGCGCGUGAAAGACAGAAGUGAACCAGAGAAACACACGUUGUGGUAUAUUACCUGUUA [G27C G69U],0.162
4,GUCCUCUUUCACGUGCGCGUGAAAGAAAGAAGUGAACCAGAGAAACACACGUUGGGGUAUAUUACCUGGUA [G27A U55G],0.144
5,GUCCUCUUUCACGUGCGCGUGAAAGAAAGAAGUGAACCAGAGAAACACACGUUGCGGUAUAUUACCUGGUA [G27A U55C],0.211
6,GUCCUCUUUCACGUGCGCGUGAAAGACAGAAGUGAAUCAGAGAAACACACGUUGUGGUAUAUUACCUGGUA [G27C C37U],0.0764
7,GUCCUCUUUCACGUGCGCGUGAAAGACAGAAGUGAAGCAGAGAAACACACGUUGUGGUAUAUUACCUGGUA [G27C C37G],0.239
8,GUCCUCUUUCACGUGCGCGUGAAAGACAGAAGUGAACCAGAGAAACACACGUUGUGGUAUAUUACCAGGUA [G27C U67A],0.104
9,GUCCUCUUUCACGUGCGCGUGAAAGACAGAAGUGAACCAGAGAAACACACGUUGUGGUCUAUUACCUGGUA [G27C A59C],0.104
10,GUCCUCUUUCACGUGCGCGUGAAAGACAGAAGUGAACCAGAGAAACACACGUUGUGGUGUAUUACCUGGUA [G27C A59G],0.0478
11,GUCCUCUUUCACGUGCGCGUGAAAGACAGAAGUGAACCAGAGAAACACACGUUGUGGUAGAUUACCUGGUA [G27C U60G],0.0405
12,GUCCUCUUUCACGUGCGCGUGAAAGAAAGAAGUGAACCAGAGAAACACACGUUGUGGUAUAUUCCCUGGUA [G27A A64C],0.189
13,GUCCUCUUUCACGUGCGCGUGAAAGACAGAAGUGAACCAGAGAAACACACGUUGUGGUAUAUUUCCUGGUA [G27C A64U],0.184
14,GUCCUCUUUCACGUGCGCGUGAAAGACAGAAGUGAACCAGAGAAACACACGUUGUGGUAUAUUCCCUGGUA [G27C A64C],0.128
15,GUCCUCUUUCACGUGCGCGUGAAAGAAAGAAGUGAACCAGAGAAACACACGUUGUGGCAUAUUACCUGGUA [G27A U58C],0.516
16,GUCCUCUUUCACGUGCGCGUGAAAGACAGAACUGAACCAGAGAAACACACGUUGUGGUAUAUUACCUGGUA [G27C G32C],0.13
17,GUCCUCUUUCACGUGCGCGUGAAAGACAGAAAUGAACCAGAGAAACACACGUUGUGGUAUAUUACCUGGUA [G27C G32A],0.191
18,GUCCUCUUUCACGUGCGCGUGAAAGACAGAAGUGAACCAGAGAAACACACGUUGUGGUAUAUUACGUGGUA [G27C C66G],0.156
19,GUCCUCUUUCACGUGCGCGUGAAAGAAAGAAGUGAACCAGAGAAACACACGUUGUGAUAUAUUACCUGGUA [G27A G57A],0.145

row,Variant,self-cleavage
1,GUCCUCUUUCACGUGCGCGUGAAAGAAAGAAGUGAACCAGAGAAACACACGUUGUGGUAUAUUACCUGAUA [G27A G69A],0.155
2,GUCCUCUUUCACGUGCGCGUGAAAGAAAGAAGUGAACCAUAGAAACACACGUUGUGGUAUAUUACCUGGUA [G27A G40U],0.179
3,GUCCUCUUUCACGUGCGCGUGAAAGACAGAGGUGAACCAGAGAAACACACGUUGUGGUAUAUUACCUGGUA [G27C A31G],0.124
4,GUCCUCUUUCACGUGCGCGUGAAAGACAGACGUGAACCAGAGAAACACACGUUGUGGUAUAUUACCUGGUA [G27C A31C],0.131
5,GUCCUCUUUCACGUGCGCGUGAAAGACAGAAGUGAACCAGAGAACCACACGUUGUGGUAUAUUACCUGGUA [G27C A45C],0.11
6,GUCCUCUUUCACGUGCGCGUGAAAGAUCGAAGUGAACCAGAGAAACACACGUUGUGGUAUAUUACCUGGUA [G27U A28C],0.179
7,GUCCUCUUUCACGUGCGCGUGAAAGACAGAAGUGAACCUGAGAAACACACGUUGUGGUAUAUUACCUGGUA [G27C A39U],0.0549
8,GUCCUCUUUCACGUGCGCGUGAAAGACAGAAGUGAACCAGAGAAACACACGUUGUGGAAUAUUACCUGGUA [G27C U58A],0.123
9,GUCCUCUUUCACGUGCGCGUGAAAGACAGAAGUGAACCAGAGAAACACACGUUGUGGGAUAUUACCUGGUA [G27C U58G],0.188
10,GUCCUCUUUCACGUGCGCGUGAAAGACAGAAGUGAACCAGAUAAACACACGUUGUGGUAUAUUACCUGGUA [G27C G42U],0.172
11,GUCCUCUUUCACGUGCGCGUGAAAGAUAGAGGUGAACCAGAGAAACACACGUUGUGGUAUAUUACCUGGUA [G27U A31G],0.164
12,GUCCUCUUUCACGUGCGCGUGAAAGACAGAAGUGAACCAGAGACACACACGUUGUGGUAUAUUACCUGGUA [G27C A44C],0.0898
13,GUCCUCUUUCACGUGCGCGUGAAAGAAAGAAGUGAACCAGAGAAACACACGUUGUGGUAUAUUACUUGGUA [G27A C66U],0.13
14,GUCCUCUUUCACGUGCGCGUGAAAGACAGAAGUGAACCAGAGAAACACACGUUGUGGUAUAGUACCUGGUA [G27C U62G],0.161
15,GUCCUCUUUCACGUGCGCGUGAAAGACAGAAGUGAACCAGAGAAACACACGUUGUGGUAUACUACCUGGUA [G27C U62C],0.12
16,GUCCUCUUUCACGUGCGCGUGAAAGAAAGAAGUGAACCAGAGAAACACACGUUGUGGUAUAUUACCUGGAA [G27A U70A],0.426
17,GUCCUCUUUCACGUGCGCGUGAAAGAAAGAAGUGAACCAGAGAAACACACGUUGUGGUAUAUUACCUGGCA [G27A U70C],0.391
18,GUCCUCUUUCACGUGCGCGUGAAAGAUAGGAGUGAACCAGAGAAACACACGUUGUGGUAUAUUACCUGGUA [G27U A30G],0.0852
19,GUCCUCUUUCACGUGCGCGUGAAAGAAAGAAGUGAACCAGAGAAACACACGUAGUGGUAUAUUACCUGGUA [G27A U53A],0.371
